Consider two substances from patent publication US20240138384A1.

The target of the assay is humanized CD47 polypeptide on red blood cells from humanized CD47 mice (human extracellular and transmembrane portions with mouse signal peptide portion and mouse intracytoplasmic tail) (UniProt Q08722). Description: flow cytometry on RBCs from humanized CD47 mice, isotype control (baseline). A general note: Flow cytometry measures light scatter and fluorescence of single cells or particles in a stream.
Chain of UniProt Q08722 (Q08722 other isoform, or with tags, fused parts or gaps limits assumed): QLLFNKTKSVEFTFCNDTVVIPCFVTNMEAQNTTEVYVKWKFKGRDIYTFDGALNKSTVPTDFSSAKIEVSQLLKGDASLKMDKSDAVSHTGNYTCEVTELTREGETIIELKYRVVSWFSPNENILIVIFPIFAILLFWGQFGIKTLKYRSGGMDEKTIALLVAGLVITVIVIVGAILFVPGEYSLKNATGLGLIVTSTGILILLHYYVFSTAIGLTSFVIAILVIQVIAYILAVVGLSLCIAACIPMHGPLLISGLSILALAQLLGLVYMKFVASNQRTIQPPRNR

Control, hIgG4 (antibody) gave an MFI of 112 MFI.
Under Control, hIgG4s (antibody) stands 112 MFI.
